In doi:10.1101/435982 (bioRxiv, 2018):

What was measured:
[1] = biological target: His-Halo-XcpS62-396 (not stated | P. aeruginosa) (UniProt Q00513); assay: negative-stain electron microscopy structure
[2] = biological target: the molecule itself; assay: SEC-MALS

Chain of His-Halo-XcpS62-396 (Q00513 whole entry, the tested form may be a part): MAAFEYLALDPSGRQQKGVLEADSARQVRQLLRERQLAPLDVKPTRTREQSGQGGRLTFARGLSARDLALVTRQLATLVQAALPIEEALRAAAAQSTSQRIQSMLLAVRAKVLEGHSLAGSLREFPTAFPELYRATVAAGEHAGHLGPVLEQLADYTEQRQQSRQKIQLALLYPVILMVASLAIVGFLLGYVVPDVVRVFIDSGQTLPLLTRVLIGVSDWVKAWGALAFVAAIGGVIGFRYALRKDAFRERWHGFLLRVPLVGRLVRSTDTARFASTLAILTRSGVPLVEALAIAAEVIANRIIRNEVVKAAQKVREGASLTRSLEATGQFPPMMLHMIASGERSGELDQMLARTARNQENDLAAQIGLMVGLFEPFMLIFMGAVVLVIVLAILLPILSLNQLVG

Molecule | stoichiometry N [1] | stoichiometry N [2]
His-Halo-XcpS62-396 (from UniProt Q00513 62-396) (domain or fragment) | 2 | –
Strep-mCherry-XcpS56-396 (domain or fragment, P. aeruginosa, UniProt Q00513 56-396, looked up) RLTFARGLSARDLALVTRQLATLVQAALPIEEALRAAAAQSTSQRIQSMLLAVRAKVLEGHSLAGSLREFPTAFPELYRATVAAGEHAGHLGPVLEQLADYTEQRQQSRQKIQLALLYPVILMVASLAIVGFLLGYVVPDVVRVFIDSGQTLPLLTRVLIGVSDWVKAWGALAFVAAIGGVIGFRYALRKDAFRERWHGFLLRVPLVGRLVRSTDTARFASTLAILTRSGVPLVEALAIAAEVIANRIIRNEVVKAAQKVREGASLTRSLEATGQFPPMMLHMIASGERSGELDQMLARTARNQENDLAAQIGLMVGLFEPFMLIFMGAVVLVIVLAILLP | – | 2
